Measurements as given in paper PMC5383425, “Differential CLE peptide perception by plant receptors implicated from structural and functional analyses of TDIF-TDR interactions” (PLoS ONE, 2017).
Substitutions are numbered along the chain they refer to. Square brackets hold non-standard residues; d marks the D form. Ends that are not written are not given here. Hyp = O=C(O)[C@@H]1C[C@@H](O)CN1

Assays:
Test in all cases: ITC; 0.5–1 mM peptide titrated into 10–40 μM ecdTDR; 25°C; 10 mM sodium citrate, 100 mM NaCl, pH 5.5; fitted to one set of binding sites; MicroCal Auto-iTC200
Conditions in all cases: both partners purified
[1] = target: T1, ecdTDR mutant with all five N-terminal anchoring site-binding residues replaced by alanine (Arabidopsis thaliana, UniProt Q9FII5 30-642)
T1 chain: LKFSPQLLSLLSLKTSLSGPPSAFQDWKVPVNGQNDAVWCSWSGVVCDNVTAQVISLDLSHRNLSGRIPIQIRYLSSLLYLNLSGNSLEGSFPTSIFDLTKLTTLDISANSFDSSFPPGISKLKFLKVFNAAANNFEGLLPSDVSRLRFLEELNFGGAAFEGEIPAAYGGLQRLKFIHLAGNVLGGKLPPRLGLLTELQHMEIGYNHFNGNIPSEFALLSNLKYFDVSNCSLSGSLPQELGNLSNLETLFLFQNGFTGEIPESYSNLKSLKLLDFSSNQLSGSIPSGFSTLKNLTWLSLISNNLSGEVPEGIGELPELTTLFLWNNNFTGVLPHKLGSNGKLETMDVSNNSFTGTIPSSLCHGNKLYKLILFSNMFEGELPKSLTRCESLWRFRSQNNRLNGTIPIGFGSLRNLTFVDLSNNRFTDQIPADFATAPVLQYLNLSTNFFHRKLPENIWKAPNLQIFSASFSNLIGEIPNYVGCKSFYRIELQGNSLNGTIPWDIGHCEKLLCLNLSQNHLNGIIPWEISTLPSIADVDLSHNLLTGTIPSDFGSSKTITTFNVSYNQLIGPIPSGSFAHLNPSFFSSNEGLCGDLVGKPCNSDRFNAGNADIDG

ecdTDR S305A mutant = target: T2, ecdTDR S305A mutant (Arabidopsis thaliana, UniProt Q9FII5 30-642, S305A)
T2 construct: TDR/PXY of A. thaliana, extracellular domain, residues 30-642; also called alanine substitution mutation of TDR-S305; source: High Five insect cells (baculovirus), secreted, purified as the wild type (Ni-NTA, size-exclusion chromatography)
T2 sequence (looked up): T1 chain with A109R, A132F, A133S, A158S, A159Y, S276A

[2] = target: T3, TDR-R421A/R423A double mutant (ecdTDR) (Arabidopsis thaliana, UniProt Q9FII5 30-642, R421A | R423A)
T3 construct: TDR/PXY of A. thaliana, extracellular domain, residues 30-642; source: High Five insect cells (baculovirus), secreted, purified as the wild type (Ni-NTA, size-exclusion chromatography)
T3 sequence (looked up): T1 chain with A109R, A132F, A133S, A158S, A159Y, R392A, R394A

B1: Tracheary Element Differentiation Inhibitory Factor (TDIF) peptide (peptide)
peptide: HEV[Hyp]SG[Hyp]NPISN
notes: TDIF, the 12-residue CLE peptide processed from CLE41 and CLE44 of A. thaliana; printed as HEV(Hyp)SG(Hyp)NPISN; numbers count on: the 12-residue peptide; CLE44 encodes the same peptide; also called wild type TDIF; wtTDIF; source: synthetic peptide (peptide 2.0)
- fold decrease in affinity against wild-type ecdTDR [1]: 31.4 fold
- fold lower binding than wild-type ecdTDR (ecdTDR S305A mutant): 4.4 fold
- fold lower affinity than wild-type ecdTDR [2]: 3 fold
